In assay [1] the target is GST-rat α2 I domain fusion protein (rat). Nature of the assay: Eu-TMC-2206 on immobilized GST-α2 I domain at 37 °C, Scatchard.
Assay [2] has the same target. Nature of the assay: SPR (Biacore 2000), antibody captured, GST-α2 I domain in solution. (SPR reads the build-up and loss of mass on a sensor chip optically.)
Assay [3] has as its target human platelet α2β1 integrin (immobilized on microtiter plates) (human) (UniProt P17301). Nature of the assay: competition with Eu-TMC-2206 on human platelet α2β1-coated plate.

Positions count from the first letter of the chain named. In names and notes the source's numbering stands.

human platelet α2β1 integrin (immobilized on microtiter plates) (human), sequence (P17301 30-1181 E534K limits assumed, chain 1 of 2): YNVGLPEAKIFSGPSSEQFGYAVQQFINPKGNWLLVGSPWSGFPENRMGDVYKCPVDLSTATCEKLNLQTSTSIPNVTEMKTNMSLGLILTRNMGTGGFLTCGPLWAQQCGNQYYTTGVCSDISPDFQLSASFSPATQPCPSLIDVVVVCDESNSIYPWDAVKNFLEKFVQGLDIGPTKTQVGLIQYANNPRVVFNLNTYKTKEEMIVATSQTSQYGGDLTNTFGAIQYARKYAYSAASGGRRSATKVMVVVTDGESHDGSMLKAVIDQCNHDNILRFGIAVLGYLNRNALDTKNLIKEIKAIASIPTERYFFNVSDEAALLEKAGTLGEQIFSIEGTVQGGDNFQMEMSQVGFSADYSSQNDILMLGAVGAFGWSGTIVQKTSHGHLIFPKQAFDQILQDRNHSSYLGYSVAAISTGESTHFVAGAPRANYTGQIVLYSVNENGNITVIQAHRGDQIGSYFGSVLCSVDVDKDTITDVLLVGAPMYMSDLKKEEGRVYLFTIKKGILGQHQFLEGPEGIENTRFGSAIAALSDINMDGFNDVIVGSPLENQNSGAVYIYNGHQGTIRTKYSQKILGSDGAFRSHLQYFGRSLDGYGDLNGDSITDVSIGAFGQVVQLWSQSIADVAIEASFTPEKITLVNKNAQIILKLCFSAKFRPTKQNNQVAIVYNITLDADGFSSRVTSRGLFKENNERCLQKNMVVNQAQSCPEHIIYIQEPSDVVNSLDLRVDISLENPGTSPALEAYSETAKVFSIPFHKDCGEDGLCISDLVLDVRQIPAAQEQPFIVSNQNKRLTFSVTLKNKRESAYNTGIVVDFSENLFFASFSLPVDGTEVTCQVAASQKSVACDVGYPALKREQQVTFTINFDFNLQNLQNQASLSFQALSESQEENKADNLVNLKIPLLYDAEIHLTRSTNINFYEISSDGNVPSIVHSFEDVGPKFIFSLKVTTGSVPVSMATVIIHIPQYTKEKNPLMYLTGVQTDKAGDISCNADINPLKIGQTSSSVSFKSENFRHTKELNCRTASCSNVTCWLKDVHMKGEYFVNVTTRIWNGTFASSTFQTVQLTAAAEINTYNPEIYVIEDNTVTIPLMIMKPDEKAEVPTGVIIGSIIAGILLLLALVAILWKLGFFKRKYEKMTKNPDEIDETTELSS
human platelet α2β1 integrin (immobilized on microtiter plates) (human), sequence (chain, as listed by the source limits assumed, chain 2 of 2): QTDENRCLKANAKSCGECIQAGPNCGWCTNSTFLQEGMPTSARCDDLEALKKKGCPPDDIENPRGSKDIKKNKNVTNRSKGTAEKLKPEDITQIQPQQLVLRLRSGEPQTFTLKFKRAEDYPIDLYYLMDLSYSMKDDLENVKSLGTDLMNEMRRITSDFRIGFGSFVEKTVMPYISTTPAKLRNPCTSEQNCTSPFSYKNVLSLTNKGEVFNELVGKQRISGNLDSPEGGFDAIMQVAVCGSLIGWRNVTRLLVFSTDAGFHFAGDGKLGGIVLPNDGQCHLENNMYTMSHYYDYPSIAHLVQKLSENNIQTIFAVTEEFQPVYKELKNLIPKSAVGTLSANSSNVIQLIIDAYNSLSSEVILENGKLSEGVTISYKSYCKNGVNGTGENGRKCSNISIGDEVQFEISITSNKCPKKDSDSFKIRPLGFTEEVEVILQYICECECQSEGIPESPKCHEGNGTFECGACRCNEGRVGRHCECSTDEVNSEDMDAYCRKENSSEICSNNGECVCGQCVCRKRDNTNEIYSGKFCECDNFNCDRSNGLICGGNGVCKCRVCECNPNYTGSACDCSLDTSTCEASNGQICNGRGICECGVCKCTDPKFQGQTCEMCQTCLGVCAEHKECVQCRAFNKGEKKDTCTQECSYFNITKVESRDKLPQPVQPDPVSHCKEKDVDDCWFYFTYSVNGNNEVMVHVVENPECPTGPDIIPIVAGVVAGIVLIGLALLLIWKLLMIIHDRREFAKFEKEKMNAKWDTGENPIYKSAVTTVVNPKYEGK

B1: TMC-2206 (antibody, mouse IgG1, V domains shown)
VH: QVQLKESGPGLVAPSQSLSITCTVSGFSLTNYGIHWVRQPPGKGLEWLGVIWARGFTNYNSALMSRLIITKDNSQSQVFLKMNSLQPDDSATYFCARANDGVYYAMDYWGQGTSVTVSS
VL: QFVLTQSPAFLSASPGEKVTMTCSANSSVNYIHWYQQKSGTSPKKWIYDTSKLASGVPVRFSGSGSGTSYSLTISSMETEDAATYYCQQWTTNPLTFGAGTRVELK
For B1, in assay [1], the Kd – broadly, the free concentration of one partner at which half of the binding sites on the other are occupied at equilibrium, for simple one-to-one binding – amounted to 1.3 nM and the fold decrease compared to human α2 I domain was found to be 6 fold. Moreover, in assay [2], the Kd stood at 2 nM; the koff – broadly, a measure of how fast the partners let go of each other – was 0.00082 s⁻¹; the kon (usually a measure of how fast the partners come together) was 420000 M⁻¹ s⁻¹.

B2: TMC-2206 VH D100A variant antibody (antibody, part only; not given: Light chain, constant regions, V domains shown, part only)
VH: B1 VH with D100A
For B2, in assay [3], the fold shift in potency relative to the mouse-human chimeric TMC-2206 antibody was more than 1600 fold.

Values taken from US20070128190A1.
